# Source: US20240254204A1
# Residue numbers refer to the chain shown, from its start.
# B1: Antibody 1 (SS6V1-B5) (antibody, V domains shown)
# VH: EVQLVESGGGLVQPGGSLRLSCAASGFILRNYEMQWVRQAPGKGLEWVSVIGNTGGTFYAGSVKGRFTISRENAKNSLYLQMNSLRAEDTALYYCARVTYTSSPLPFWFLDLWGRGTLVTVSS
# VL: DIQMTQSPSSLSASVGDRVTITCRASQSIGNYLNWYQQKSGKAPKILIYAASSLQSGVPSRFSGSGSGTDFTLTISSLQPEDFATYYCQQTYRTPPEDSFGQGTKVEIK
# B2: Antibody 5 (SS6V5-C3) (antibody, V domains shown)
# VH: EVQLVQSGAEVRKPGESLKISCKTSGYTFTHYWIGWVRQLPGKGLEWMGIIYPDDSDTKYSPSFQGQITISADKSISTAYLQWNSLKASDTAMYFCATADIVVGSNFFDHWGQGTLVTVSS
# VL: DIQMTQSPSTLSASVGDRVTITCRASQSISTWLAWYQQKPGKPPKVLIYKASILESGVSSRFSGSGSGTEFTLTISSLQPDDFATYYCQHYNSYIKTFGQGTKVEIK
# B3: Antibody 15 (SS6V15-F6) (antibody, V domains shown)
# VH: EVQLVESGGGVVQPGRSLRLSCAASGFTFSSYAIHWVRQAPGKALEWVALISYDGRTKYYADSVKGRFTISRDNSKNTLYLQMNSLRAEDTAVYYCARLDIIITPPANDYWGQGTLVTVSS
# VL: EIVLTQSPGTLSLSPGDRATVSCRASQIVSSNYLAWYQQKPGQVPRLLIYDASSRATGIPDRFSGSGSGTDFTLTISRLEPEDFAVYYCHQYGDSRRTFGQGTKVDIK
# B4: Antibody 9 (SS6V9-D11) (antibody, V domains shown)
# VH: QVQLQESGPGLVKPSGTLSLTCAVSGGSISSNIWWSWVRQPPGKGLEWIGDIYHSGSTNYNPSLEGRVTISIDKSKNQFSLRLTSLTAADTAVYYCARAISQQYFDSSVLGYWGQGILVTVSS
# VL: EIVMTQSPATLSVSPGERVTLSCRASQSVVTNLAWYQQKPGQAPRLLIYGASTRATGIPARFSGSGSGTEFTLTISSLQSEDFAIYHCQQYNNWPGYTFGQGTKVDIK
# B5: Antibody 6 (SS6V6-C4) (antibody, V domains shown)
# VH: EVQLVESGGGLVQPGGSLRLSCSASGFTFNTYAMHWVRQAPGKGPEYVSGISSNGGITDYADSVKGRFTISRDNSKNTLYLQMSSLRPEDTAVYYCVKDSLATVVTLLSYWGQGTLVTVSS
# VL: DIQMTQSPSSLSASVGDRVTITCRASQTISSYLNWFQQKPGKAPKLLIYAASSLQSGVPSRFSGSGSGTDFTLTISSLQPEDFAIYYCQQSYSTPGTFGQGTKVEIK
# B6: Antibody 18 (SS6V18-E3) (antibody, V domains shown)
# VH: EVQLVESGGGLVQPGGSLRLSCAASGFTFSSYAMHWVRQVPGKGLEYVSSITSNGGGTFYADSVKGRFTISRDNSKNTVYLQMGSLSTEDMALYYCAREGIQGWVTYFDYWGRGILVTVSS
# VL: DIQMTQSPSSLSASIGDRVTITCRASQSISTNLNWYQQKPGKAPKLLIYAASSLPSGVPSRFSGSGSGTDFTLTISSLQPEDFANYLCQQTYTTPQYSFGQGTKVEIK
# B7: Antibody 14 (SS6V14-F2) (antibody, V domains shown)
# VH: QVQLQESGPGLVKPSETLSLTCTVSGGPISSYYWTWIRQPPGKGLEWIGYIYYSGSTNYSPSLKSRVTMSLETSKNQFSLKLTSVTAADTAVYYCARDPLAEGAASSGFDNWGQGTLVTVSS
# VL: DIQMTQSPSSLSASVGDRVTITCRASQSISSYLNWYQQKPGKAPKLLIYAASALQSGVPSRFSGSGSGTHFSLTINGLQPEDFATYSCQQSYTTPRTFGPGTKVEIK
# B8: Antibody 12 (SS6V12-E11) (antibody, V domains shown)
# VH: EVQLVESGGGLVKPGGSLRLSCAASGFTFSTYNMNWVRQAPGKGLEWVSSISSSSSFMFYADSVKGRFTISRDNANNSLYLQMNSLRAEDTAVYYCARDYYDNSGYYYYGMDVWGQGTTVTVSS
# VL: DIQMTQSPSSLSASVGDRVTITCRASQSIRTYLSWYQQKPGKAPELLIYAASNLQSGVPSRFSGSGSGTDFTLTISSLQPEDFATYYCLQTYSTPQITFGQGTRLEIE
# B9: Antibody 2 (SS6V2-G1) (antibody, V domains shown)
# VH: EVQLVESGGGLVQPGGSLRLSCAASGFTVSSNYMSWVRQAPGKGLEWVSVIYSGGSTFYADSVKGRFTISRDNSKNTLYLQMNSLRAEDTAVYYCARELRHYFDYWGQGTLVTVSS
# VL: DIQLTQSPSFLSASVGDRVTITCRASQGISSYLAWYQQKPGKAPKLLIYAASTLQSGVPSRFSGSGSGTEFTLTISSLQPEDFATYYCQQLNSYPPYSFGQGTKVEIK
# B10: Antibody 7 (SS6V7-C5) (antibody, V domains shown)
# VH: EVQLVQSGAEVKKPGESLKISCKGSENIFSGYWIGWVRQMPGKGLEWMGIIYPDDSDTRYNPSFQGQVTISADQSISTAYLQWSRLKASDTAMYYCARHLGGGSSWPIDYWGQGTLVTVSS
# VL: DIQMTQSPSSLSASVGDRVTITCRANQGISNYLAWFQQKPGKAPKSLIYAASSLQSGVPSKFSGNRSGTDFTLTISSLQPEDFATYYCQQYSSYPFTFGGGTKVEIK
# B11: Antibody 10 (SS6V10-E1) (antibody, V domains shown)
# VH: EVQLVQSGAEVKKPGESLKISCQGSEDSFTGYWIGWVRQLPGKGLEWMGFIYPDDGDTRYSPAFQGLVTFSADKSITTAYLQWSSLKASDTAIYFCARHLGGGSSWPIDSWGQGTQVTVSS
# VL: B10 VL with N26S, S30R, N65S, R66G, S67Y, S76N, S92N, S93N, Y94H
# B12: Antibody 19 (SS6V19-F4) (antibody, V domains shown)
# VH: EVQLVQSGSELKKPGASVKVSCKVSGYTFTDYNMNWVRQAPGQGLEWMGWINTNTGIPTYAQGFTGRFVFSLDTSVSTAYLQISSLKAEDTAIYYCARDGGWQLPYWYFDLWGRGTLVTVSS
# VL: EIVMTQSPATLSVSPGERVTLSCRASYSFSSSLAWYQQKPGQAPRLLIYGTSTRATGVPVRFSGSGSGTEFTLTISSLQSEDLAVYYCQQYYSWPLTFGQGTKVDIK
# B13: Antibody 8 (SS6V8-D3) (antibody, V domains shown)
# VH: EVQLVESGGDLVQPGGSLRLSCSASGFTFSTYAMHWVRQAPGKGLDYVASIASDGGITTYADSVKGRFTISRDNSKNALYLQMSSLRVEDTAVYYCVKDSLTSVTTIFDCWGQGTLVTVSS
# VL: DIQMTQSPSSLSASVGDSVTITCRASQNINSYLHWYQQKPGKAPKLLIYTASSLQSGVPSRFSASGSGTHFTLTISSLQPEDFATYYCQQSYTDPYTFGQGSKVEIK
# Molecular target: SARS-CoV-1 RBD (SARS-CoV)
# Assay: sVNT, cPass kit format with SARS-CoV-1 RBD-HRP; HEK293 supernatant
row,Binder,sVNT SARS-CoV-1 (% I)
1,B1,52.1%
2,B2,11.7%
3,B3,17.5%
4,B4,45.2%
5,B5,30.5%
6,B6,43.7%
7,B7,18.1%
8,B8,50.4%
9,B9,1.35%
10,B10,20.8%
11,B11,15.4%
12,B12,61.2%
13,B13,36.1%

# Molecular target: SARS-CoV-2 RBD (SARS-CoV-2)
# Assay: ELISA, 100 ng coated RBD, neat supernatant, anti-human IgG-HRP
row,Binder,Binding SARS-CoV-2
1,B1,1.73
2,B2,1.68
3,B3,0.674
4,B4,1.81
5,B5,1.92
6,B6,1.11
7,B7,1.54
8,B8,1.45
9,B9,0.947
10,B10,1.16
11,B11,1.31
12,B12,0.641
13,B13,1.94

# Molecular target: SARS-CoV-1 RBD (SARS-CoV)
# Assay: as above
row,Binder,Binding SARS-CoV-1
1,B1,1.35
2,B2,1.16
3,B3,0.831
4,B4,1.29
5,B5,1.29
6,B6,1.33
7,B7,1.06
8,B8,1.21
9,B9,0.008
10,B10,0.972
11,B11,1.1
12,B12,1.15
13,B13,1.42

# Molecular target: SARS-CoV-2 RBD (SARS-CoV-2)
# Assay: sVNT, cPass kit with SARS-CoV-2 RBD-HRP; HEK293 supernatant
row,Binder,sVNT SARS-CoV-2 (% I)
1,B1,46.3%
2,B2,32.3%
3,B3,15.7%
4,B4,39.2%
5,B5,31.7%
6,B6,15.5%
7,B7,33.4%
8,B8,45%
9,B9,20.2%
10,B10,14.9%
11,B11,22.7%
12,B12,38.8%
13,B13,33.1%
